Results: PMC8892516, “Intragenic suppressors unravel the role of the SCREAM ACT-like domain for bHLH partner selectivity in stomatal development” (Proceedings of the National Academy of Sciences of the …, 2022)

Experiments:
Settings in all cases: both partners purified
[1] = target: T1, MUTE-ACTL (114-202) (Arabidopsis thaliana, UniProt Q9M8K6 114-202); test: ITC; Malvern PEAQ-ITC; 150 µM SCRM ACTL/SCRM L484F ACTL injected into 15 µM SPCH ACTL/MUTE ACTL; PBS, pH 7.2 (Table S3; methods: pH 7.4); 25 °C; means of two experiments
T1 construct: MUTE, Arabidopsis thaliana, C-terminal ACT-like domain, residues 114-202; also called MUTE ACTL domain; source: E. coli BL21, purified (glutathione resin, thrombin, Superdex-200); not shown: GST, N-terminal, cleaved
T1 sequence (looked up): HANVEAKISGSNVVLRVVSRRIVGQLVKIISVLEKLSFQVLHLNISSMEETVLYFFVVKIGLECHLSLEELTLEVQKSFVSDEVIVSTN

[2] = target: T2, SPCH-ACTL (285-364) (Arabidopsis thaliana, UniProt Q700C7 285-364); test: as above
T2 construct: also called SPCH ACTL domain; source: E. coli BL21, purified (glutathione resin, thrombin, Superdex-200); not shown: GST, N-terminal, cleaved
T2 sequence (looked up): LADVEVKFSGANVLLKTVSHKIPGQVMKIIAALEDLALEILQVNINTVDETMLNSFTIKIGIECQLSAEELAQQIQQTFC

[3] = target: T3, SPCH (ΔNSPCH, 98-364) (Arabidopsis thaliana, UniProt Q700C7 98-364); test: ITC; Malvern PEAQ-ITC; 40 µM SCRM/SCRMΔC injected into 4 µM SPCH/MUTE/FAMA; PBS, pH 7.2 (Table S1; methods: pH 7.4); 25 °C; single binding site model; means of two experiments
T3 construct: the only recombinant SPCH with bHLH domain that the methods list is ΔNSPCH (98-364); source: E. coli BL21, purified (glutathione resin, thrombin, Superdex-200); not shown: GST, N-terminal, cleaved
T3 sequence (looked up): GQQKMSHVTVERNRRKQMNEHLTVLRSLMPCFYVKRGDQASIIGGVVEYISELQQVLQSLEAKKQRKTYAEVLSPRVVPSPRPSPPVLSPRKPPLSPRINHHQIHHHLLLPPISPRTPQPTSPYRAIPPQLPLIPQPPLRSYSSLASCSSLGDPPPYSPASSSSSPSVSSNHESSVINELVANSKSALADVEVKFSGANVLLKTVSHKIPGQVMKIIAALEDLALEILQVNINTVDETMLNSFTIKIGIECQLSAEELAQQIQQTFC

[4] = target: T4, FAMA (ΔNFAMA) (Arabidopsis thaliana, Limits not printed. Start set by analogy with the printed ΔNSPCH 98-364 (one residue before the annotated bHLH). Runs to the native C-terminus. Tag or fusion carrier omitted.); test: as above
T4 chain: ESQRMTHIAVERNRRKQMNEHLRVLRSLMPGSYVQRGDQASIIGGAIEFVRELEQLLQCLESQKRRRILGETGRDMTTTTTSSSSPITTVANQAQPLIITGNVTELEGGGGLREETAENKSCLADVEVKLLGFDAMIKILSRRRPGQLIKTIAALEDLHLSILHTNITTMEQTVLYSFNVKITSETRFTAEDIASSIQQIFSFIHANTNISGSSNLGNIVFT

[5] = target: T5, MUTE (1-202) (Arabidopsis thaliana, UniProt Q9M8K6 1-202); test: as above
T5 construct: MUTE, Arabidopsis thaliana, residues 1-202; MUTE (1-202) was made both as a GST fusion (pGEX-4T-1, thrombin-cleavable) and with an N-terminal His tag (pET28a); also called MUTE-HIS; MUTE-histag; source: E. coli BL21, purified (Ni-NTA or glutathione resin, Superdex-200)
T5 sequence (looked up): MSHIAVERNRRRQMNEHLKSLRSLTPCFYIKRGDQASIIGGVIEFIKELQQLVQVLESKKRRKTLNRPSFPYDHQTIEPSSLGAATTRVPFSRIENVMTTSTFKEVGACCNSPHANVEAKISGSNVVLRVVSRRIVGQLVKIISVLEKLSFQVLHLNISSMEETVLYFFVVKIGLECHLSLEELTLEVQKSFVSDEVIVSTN

[6] = target: T6, ΔNSPCH (98-364), recombinant (Arabidopsis thaliana, UniProt Q700C7 98-364); test: ITC; Malvern PEAQ-ITC, 25 °C, PBS pH 7.4; 40 μM SCRM/SCRMΔC injected into 4 μM SPCH/MUTE/FAMA; single binding site model
T6 construct: BLI and ITC name it only SPCH; ΔNSPCH (98-364) is the only long recombinant SPCH construct that the methods list; also called purified SPCH; source: E. coli BL21, purified (glutathione resin, thrombin, Superdex-200); not shown: GST, N-terminal, cleaved
T6 sequence (looked up): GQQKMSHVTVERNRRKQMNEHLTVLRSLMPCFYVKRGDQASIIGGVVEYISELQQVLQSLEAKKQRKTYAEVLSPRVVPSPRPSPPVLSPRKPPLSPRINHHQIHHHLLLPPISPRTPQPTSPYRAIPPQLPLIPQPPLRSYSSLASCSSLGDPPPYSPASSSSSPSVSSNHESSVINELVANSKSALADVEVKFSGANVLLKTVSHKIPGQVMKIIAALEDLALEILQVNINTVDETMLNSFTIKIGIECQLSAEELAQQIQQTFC

[7] = target: T7, ΔNFAMA, recombinant (Arabidopsis thaliana, Limits not printed. Start set by analogy with the printed ΔNSPCH 98-364, which starts one residue before its annotated bHLH (99); FAMA bHLH is 194-245. Runs to the native C-terminus, including the ACT); test: as above
T7 chain: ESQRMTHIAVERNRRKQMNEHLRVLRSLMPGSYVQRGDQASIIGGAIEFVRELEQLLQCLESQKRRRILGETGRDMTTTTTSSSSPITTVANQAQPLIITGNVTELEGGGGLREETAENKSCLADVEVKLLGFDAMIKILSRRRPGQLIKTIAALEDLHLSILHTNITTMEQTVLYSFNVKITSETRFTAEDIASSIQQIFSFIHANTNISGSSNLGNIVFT

[8] = target: T8, MUTE (1-202), recombinant (Arabidopsis thaliana, UniProt Q9M8K6 1-202); test: as above
T8 construct: MUTE, Arabidopsis thaliana, residues 1-202; MUTE (1-202) was cloned both in pGEX-4T-1 (N-terminal GST, thrombin cleaved) and in pET28a (N-terminal His tag); also called purified MUTE; MUTE-HIS; source: E. coli BL21, purified (Ni-NTA, Superdex-200)
T8 sequence (looked up): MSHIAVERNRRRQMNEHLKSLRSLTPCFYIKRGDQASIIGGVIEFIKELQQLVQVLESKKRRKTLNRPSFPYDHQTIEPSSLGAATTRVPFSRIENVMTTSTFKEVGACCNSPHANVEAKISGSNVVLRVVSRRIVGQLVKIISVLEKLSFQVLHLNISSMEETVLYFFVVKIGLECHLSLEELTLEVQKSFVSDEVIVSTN

[9] = target: T9, SCRM ACTL (405-494) (Arabidopsis thaliana, UniProt Q9LSE2 405-494); test: ITC; Malvern PEAQ-ITC, 25 °C, PBS pH 7.4; 150 μM SCRM ACTL/SCRM L484F ACTL injected into 15 μM SPCH ACTL/MUTE ACTL
T9 construct: SCREAM (SCRM, ICE1), Arabidopsis thaliana, At3G26744, ACT-like domain, residues 405-494; also called SCRM ACTL domain; source: E. coli BL21, purified (glutathione resin, thrombin, Superdex-200); not shown: GST, N-terminal, cleaved
T9 sequence (looked up): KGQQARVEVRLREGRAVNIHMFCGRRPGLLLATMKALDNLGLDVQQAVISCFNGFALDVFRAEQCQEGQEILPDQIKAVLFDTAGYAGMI

[10] = target: T10, SCRM ACTL_(L484F) (405-494) (Arabidopsis thaliana, UniProt Q9LSE2 405-494, L484F); test: as above
T10 construct: SCREAM (SCRM, ICE1), Arabidopsis thaliana, At3G26744, ACT-like domain, residues 405-494, L484F (printed L485F in the methods); results, legends and the ITC methods print L484F; the cloning, CD and modelling methods print L485F; also called SCRM-ACTL_(L485F); SCRM L484F ACTL; source: E. coli BL21, purified (glutathione resin, thrombin, Superdex-200); not shown: GST, N-terminal, cleaved
T10 sequence (looked up): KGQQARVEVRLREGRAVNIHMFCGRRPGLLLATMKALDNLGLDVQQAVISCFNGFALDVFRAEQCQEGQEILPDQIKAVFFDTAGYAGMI

B1: SCRM ACTL (405-494) (domain or fragment, Arabidopsis thaliana, UniProt Q9LSE2 405-494, looked up)
chain: KGQQARVEVRLREGRAVNIHMFCGRRPGLLLATMKALDNLGLDVQQAVISCFNGFALDVFRAEQCQEGQEILPDQIKAVLFDTAGYAGMI
notes: SCREAM (SCRM, ICE1), Arabidopsis thaliana, At3G26744, C-terminal ACT-like domain, residues 405-494; also called SCRM ACTL domain; source: E. coli BL21, purified (glutathione resin, Superdex-200)
stoichiometry N [1]: 0.95 | stoichiometry N [2]: 0.95

B2: SCRM (1-494), GST removed (natural protein, Arabidopsis thaliana, UniProt Q9LSE2 1-494, looked up)
chain: MGLDGNNGGGVWLNGGGGEREENEEGSWGRNQEDGSSQFKPMLEGDWFSSNQPHPQDLQMLQNQPDFRYFGGFPFNPNDNLLLQHSIDSSSSCSPSQAFSLDPSQQNQFLSTNNNKGCLLNVPSSANPFDNAFEFGSESGFLNQIHAPISMGFGSLTQLGNRDLSSVPDFLSARSLLAPESNNNNTMLCGGFTAPLELEGFGSPANGGFVGNRAKVLKPLEVLASSGAQPTLFQKRAAMRQSSGSKMGNSESSGMRRFSDDGDMDETGIEVSGLNYESDEINESGKAAESVQIGGGGKGKKKGMPAKNLMAERRRRKKLNDRLYMLRSVVPKISKMDRASILGDAIDYLKELLQRINDLHNELESTPPGSLPPTSSSFHPLTPTPQTLSCRVKEELCPSSLPSPKGQQARVEVRLREGRAVNIHMFCGRRPGLLLATMKALDNLGLDVQQAVISCFNGFALDVFRAEQCQEGQEILPDQIKAVLFDTAGYAGMI
notes: SCREAM (SCRM, ICE1), Arabidopsis thaliana, At3G26744, residues 1-494; Used for ITC; the methods tell thrombin cleavage of the GST-fused proteins in general, not for ITC by name; also called SCREAM; ICE1; source: E. coli BL21, purified (glutathione resin, thrombin, Superdex-200); not shown: GST, N-terminal, cleaved
stoichiometry N [3]: 1.02 | stoichiometry N [4]: 0.91 | stoichiometry N [5]: 1.03

B3: SCRM (1-494), recombinant (natural protein, Arabidopsis thaliana, UniProt Q9LSE2 1-494, looked up)
chain: MGLDGNNGGGVWLNGGGGEREENEEGSWGRNQEDGSSQFKPMLEGDWFSSNQPHPQDLQMLQNQPDFRYFGGFPFNPNDNLLLQHSIDSSSSCSPSQAFSLDPSQQNQFLSTNNNKGCLLNVPSSANPFDNAFEFGSESGFLNQIHAPISMGFGSLTQLGNRDLSSVPDFLSARSLLAPESNNNNTMLCGGFTAPLELEGFGSPANGGFVGNRAKVLKPLEVLASSGAQPTLFQKRAAMRQSSGSKMGNSESSGMRRFSDDGDMDETGIEVSGLNYESDEINESGKAAESVQIGGGGKGKKKGMPAKNLMAERRRRKKLNDRLYMLRSVVPKISKMDRASILGDAIDYLKELLQRINDLHNELESTPPGSLPPTSSSFHPLTPTPQTLSCRVKEELCPSSLPSPKGQQARVEVRLREGRAVNIHMFCGRRPGLLLATMKALDNLGLDVQQAVISCFNGFALDVFRAEQCQEGQEILPDQIKAVLFDTAGYAGMI
notes: SCREAM (SCRM, ICE1), Arabidopsis thaliana, At3G26744, residues 1-494; the purification methods tell thrombin cleavage; source: E. coli BL21, purified (glutathione resin, thrombin, Superdex-200); not shown: GST, N-terminal, cleaved
stoichiometry N [6]: 1 | stoichiometry N [7]: 1 | stoichiometry N [8]: 1

B4: SPCH-ACTL (285-364) (domain or fragment, Arabidopsis thaliana, UniProt Q700C7 285-364, looked up)
chain: LADVEVKFSGANVLLKTVSHKIPGQVMKIIAALEDLALEILQVNINTVDETMLNSFTIKIGIECQLSAEELAQQIQQTFC
notes: source: E. coli BL21, purified (glutathione resin, thrombin, Superdex-200); not shown: GST, N-terminal, cleaved
Kd [9]: 1200 nM | Kd [10]: 1700 nM
